The text below walks through data of article PMC8607333, “Real-time kinetic studies of Mycobacterium tuberculosis LexA–DNA interaction” (Bioscience Reports, 2021).

Numbering of substitutions follows the chain as printed.

The data set “SEC” deals with the molecule itself. Briefly: SEC. (In gel filtration, larger molecules generally elute earlier.)
Data set [1] has as its target T1, LexA RKG/AAA (Mycobacterium tuberculosis, UniProt P9WHR7 1-236, R75A;K76A;G77A).
T1 sequence: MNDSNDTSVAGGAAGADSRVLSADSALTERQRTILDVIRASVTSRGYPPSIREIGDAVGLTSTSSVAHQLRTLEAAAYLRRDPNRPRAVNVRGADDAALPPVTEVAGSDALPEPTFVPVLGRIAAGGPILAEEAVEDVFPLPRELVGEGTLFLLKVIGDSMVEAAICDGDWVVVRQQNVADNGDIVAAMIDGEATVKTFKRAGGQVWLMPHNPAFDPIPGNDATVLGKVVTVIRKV
Briefly: BLI; pH 7.5; association up to 600 s; BLI: 10 mM HEPES pH 7.5, 50 mM NaCl, 25 C (pH 4 buffer not stated), 1:1 global fit; […]. Particulars: protein: recombinant; tags: 6xHis; chain copies: 2; label: 5' biotin on strand 1; blunt. A general note: In BLI a coated tip is dipped into the sample, and binding shifts an interference pattern.

Data set [2] deals with T1, LexA RKG/AAA. Briefly: EMSA; 128 nM protein; BLI: 10 mM HEPES pH 7.5, 50 mM NaCl, 25 C (pH 4 buffer not stated), 1:1 global fit; […]. Particulars: protein: recombinant; tags: 6xHis; chain copies: 2; label: 32P end label, no biotin; blunt.
Data set [3] concerns the target T1, LexA RKG/AAA. Description: ANS extrinsic fluorescence quench; ANS, 1:2 ratio; no significant quench; BLI: 10 mM HEPES pH 7.5, 50 mM NaCl, 25 C (pH 4 buffer not stated), 1:1 global fit; […]. Particulars: protein: recombinant; tags: 6xHis; chain copies: 2; blunt.

B1: Mycobacterium tuberculosis LexA, wild type (natural protein)
chain: T1 sequence with A75R, A76K, A77G
notes: also called Mtb LexA; WT Mtb LexA
The term stoichiometry N denotes the number of molecules, sites or subunits per partner or assembly. Regarding B1, in “SEC”, the “stoichiometry N” value was 2.

B2: Mtb LexA RKG/AAA (natural protein)
chain: T1 sequence
notes: also called RKG/AAA mutant; RKG mutant
Regarding B2, the “stoichiometry N” value in the data set “SEC” stood at 2.

B3: dnaE2_44mer SOS box, biotinylated (dsDNA)
DNA 1: ACAACTGCGCTGTATCGAACAATTGTTCGATATACTGTGGAATG
DNA 2: CATTCCACAGTATATCGAACAATTGTTCGATACAGCGCAGTTGT
As for B3, the binding result with LexA RKG/AAA [1] was “no binding”.

B4: dnaE2 44mer SOS box, 32P end-labeled (dsDNA)
DNA 1: B3 DNA 1
DNA 2: B3 DNA 2
Take B4: the binding result in the data set with LexA RKG/AAA [2] is on record as “no binding”.

B5: dnaE2 44mer SOS box, non-biotinylated (dsDNA)
DNA 1: B3 DNA 1
DNA 2: B3 DNA 2
As to B5, the binding result with LexA RKG/AAA [3] is reported as “no binding”.

B6: Mtb LexAΔ24aa (domain or fragment)
chain: SALTERQRTILDVIRASVTSRGYPPSIREIGDAVGLTSTSSVAHQLRTLERKGYLRRDPNRPRAVNVRGADDAALPPVTEVAGSDALPEPTFVPVLGRIAAGGPILAEEAVEDVFPLPRELVGEGTLFLLKVIGDSMVEAAICDGDWVVVRQQNVADNGDIVAAMIDGEATVKTFKRAGGQVWLMPHNPAFDPIPGNDATVLGKVVTVIRKV
notes: also called ∆24aa variant; LexA∆24aa
In the case of B6, the “stoichiometry N” value in “SEC” was 2.

B7: Mtb LexAΔ18aa (natural protein)
chain: MNDSNDTSVAGGAAGADSRVLSADSALTERQRTILDVIRASVTSRGYPPSIREIGDAVGLTSTSSVAHQLRTLERKGYLRRDPNRPRAVNVRGPEPTFVPVLGRIAAGGPILAEEAVEDVFPLPRELVGEGTLFLLKVIGDSMVEAAICDGDWVVVRQQNVADNGDIVAAMIDGEATVKTFKRAGGQVWLMPHNPAFDPIPGNDATVLGKVVTVIRKV
notes: also called ∆18aa variant; LexA18aaΔ
B7: the “stoichiometry N” value in the data set “SEC” is 2.
